Test results as given in US20140271467A1 (Stanford University, published 2014).
Changes are numbered by the printed parent chain.

What was measured:
[1] = molecular target: T1, biotinylated human CD20 extracellular loop peptide (amino acids 165-185) (human, biotin at the C-terminus (printed as SEQ ID NO: 1-biotin)); test: selection from the G4 library against the CD20 peptide
T1 construct: Chemically synthesized; also called CD20 peptide; biotin-CD20 peptide
T1 peptide: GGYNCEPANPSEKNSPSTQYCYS
From the text: The human CD20 peptide extracellular loop was synthesized (amino acids: 165-185; […] (SEQ ID NO: 1)-biotin) and purified by RP-HPLC on a C-18 column and lyophilized as per the published procedure (29). This peptide was characterized by ESI-MS and immobilized on streptavidin magnetic beads for screening of FN3 binders. […] Briefly, yeast displaying 2.5×10⁸ FN3 mutants were sorted for binding to magnetic beads with immobilized CD20 peptide, followed by fluorescence-activated cell sorting for full-length proteins using the C-terminal c-myc epitope. Plasmid DNA from selected clones was recovered, mutated by error-prone PCR of either the entire FN3 gene or the paratope loops, and reintroduced into yeast by electroporation with homologous recombination. As binder enrichment progressed in later evolutionary cycles, fluorescence-activated cell sorting for binding to soluble CD20 peptide was also used. Six cycles of selection and mutation were performed. Plasmid DNA was recovered, transformed into bacteria, and individual clones were sequenced by standard DNA sequencing methods.

[2] = molecular target: T1, biotinylated human CD20 extracellular …; test: affinity titration with yeast surface display and flow cytometry, biotinylated CD20
[3] = molecular target: T2, human CD20 antigen on live Ramos cells (human, UniProt P11836 1-297); test: flow cytometry on live Ramos cells, 1:1 fit; flow cytometry, live Ramos cells (cellular CD20)
T2 construct: whole, on cells; Endogenous CD20 on Ramos cells (ATCC); also called cellular CD20; huCD20
T2 sequence (looked up): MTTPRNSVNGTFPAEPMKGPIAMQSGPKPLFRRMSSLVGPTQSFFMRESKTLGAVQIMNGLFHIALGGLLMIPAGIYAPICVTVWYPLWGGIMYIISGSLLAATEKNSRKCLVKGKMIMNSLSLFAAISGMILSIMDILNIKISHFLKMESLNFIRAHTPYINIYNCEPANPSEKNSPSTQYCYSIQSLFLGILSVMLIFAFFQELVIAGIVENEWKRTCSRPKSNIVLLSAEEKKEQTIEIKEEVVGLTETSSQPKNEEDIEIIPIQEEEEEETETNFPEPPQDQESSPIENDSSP
Protocol: FIG. 1C illustrates a graph showing the antigen-binding activity of FN3CD20. Ramos cells were incubated with the indicated concentration (0.5-80 nM) of FITC-FN3CD20 for 1 h at 4° C. Cells were washed and analyzed by flow cytometry. The data are expressed as the mean±standard deviation of three independent experiments. Data were normalized with respect to saturated fluorescence intensity (plateau) observed at the highest target concentrations.

[4] = molecular target: T1, biotinylated human CD20 extracellular …; test: SPR (Biacore), biotin-CD20 peptide on a streptavidin chip, 1:1 fit, 25 C; SPR, CD20 peptide (amino acids 165-185)
Protocol: FN3CD20 protein (0.4, 2, 10, 50, 250, and 750 nM) was diluted in HBS and injected into the chip at a flow rate of 15 μL/min for 1 min at 25° C.
All measurements were performed at 25° C. on a BIAcore 100 instrument and streptavidin chip (GE healthcare Biosciences, PA). The streptavidin chip was first cleaned with three consecutive 1-min. injections of 40 μl, of a solution of 1 M NaCl in 50 mM NaOH before the immobilization procedure. Five minutes after the cleaning process when the sensorgram reached a stable baseline, biotynalated CD20 peptide, diluted in running buffer to 20 μg/mL, was injected for 7 min. using a flow rate of 5 μL/min. The same procedure was performed for immobilization of non-specific CD20 peptide, except that the non-specific CD20 peptide was diluted in running buffer to 200 μg/ml. To attain maximum immobilization level of biotin peptides on the surface of streptavidin, multiple injections were performed.
Target antigen of CD20 peptide was immobilized on a streptavidin chip. FN3CD20 was analyzed in 10 mM HEPES, pH 7.4, 150 mM NaCl, 0.005% Tween 20 at […] concentrations between 0 and 750 nM, and non-specific FN3 was used as control. The flow-rate was 15 μl/min; association and dissociation times were 1 and 2 min, respectively. […] The data were analyzed using BIAeval (BIAcore) software, with a global fitting to the 1:1 binding model. […]

[5] = molecular target: T2, human CD20 antigen on live Ramos cells; test: radiotracer binding to Ramos cells

B1: FN3CD20-01 (fibronectin type 3 domain clone selected against the CD20 peptide from the G4 library) (designed binder)
chain: ASVSDVPRDLEVVAATPTSLLISWHYTCAGSYRITYGETGGNSPVQEFTVPGSWKTATISGLKPGVDYTITVYAVTHYYGWDRYSHPISINYRTGSHHHHHH
notes: It was a library clone during selection
B1: binds [1].

B2: FN3CD20-02 (fibronectin type 3 domain clone selected against the CD20 peptide from the G4 library) (designed binder)
chain: B1 chain with G30D, G52W, S53Y, W54V, K55S, T56N, A74V
notes: as for B1
B2: binds [1].

B3: FN3CD20 clone displayed on the yeast surface (designed binder, not shown: large carriers)
chain: ASVSDVPRDLEVVAATPTSLLISWCRQRCADSYRITYGETGGNSPVQEFTVPGSWKTATISGLKPGVDYTITVYVVTHYYGWDRYSHPISINYRTGSHHHHHH
notes: also called one clone; this clone
With B3 the Kd [2] was 14.3 nM.

B4: FN3CD20 (engineered fibronectin type 3 domain binding CD20, soluble, C-terminal His6 tag) (designed binder)
chain: B3 chain
notes: Made in E. coli with a His6 tag; also called FN3 scaffold
Binder B4 has a Kd [3] of 20 nM and a Kd [4] of 22 nM.

B5: 64Cu-Do-FN3CD20 (64Cu-DOTA-labelled FN3CD20) (designed binder)
chain: B3 chain
modifications: DOTA conjugated to primary amines (1.8 DOTA molecules per FN3 protein), chelating 64Cu
notes: also called 64Cu-FN3CD20; 64Cu-FN3
B5: binds [5].

B6: FN3CD20-03 (fibronectin type 3 domain clone selected against the CD20 peptide from the G4 library) (designed binder)
chain: ASVSDVPRDLGVVAATPTSLLISWHSSDVSYYRITYGETGGNSPVQEFTVPYWFTNTTISGLKPGVDYTITVYAATYRDCSSEPISINYRTGSHHHHHH
notes: as for B1
B6: binds [1].
